Experimental data reported in publication PMC5432316.

Target: recombinant gC1q domain of EMILIN1 (UniProt Q9Y6C2)
Assay: cell adhesion assay (CAFCA, Centrifugal Assay for Fluorescence-based Cell Adhesion); ligand as substrate in CAFCA miniplates; calcein AM-labelled cells centrifuged onto the substrate, 20 min at 37°C, then centrifuged at 500 rpm; bound cells read by fluorescence; for HaCat cells also with integrin blocking antibodies

Chain of UniProt Q9Y6C2 (Q9Y6C2 22-1016): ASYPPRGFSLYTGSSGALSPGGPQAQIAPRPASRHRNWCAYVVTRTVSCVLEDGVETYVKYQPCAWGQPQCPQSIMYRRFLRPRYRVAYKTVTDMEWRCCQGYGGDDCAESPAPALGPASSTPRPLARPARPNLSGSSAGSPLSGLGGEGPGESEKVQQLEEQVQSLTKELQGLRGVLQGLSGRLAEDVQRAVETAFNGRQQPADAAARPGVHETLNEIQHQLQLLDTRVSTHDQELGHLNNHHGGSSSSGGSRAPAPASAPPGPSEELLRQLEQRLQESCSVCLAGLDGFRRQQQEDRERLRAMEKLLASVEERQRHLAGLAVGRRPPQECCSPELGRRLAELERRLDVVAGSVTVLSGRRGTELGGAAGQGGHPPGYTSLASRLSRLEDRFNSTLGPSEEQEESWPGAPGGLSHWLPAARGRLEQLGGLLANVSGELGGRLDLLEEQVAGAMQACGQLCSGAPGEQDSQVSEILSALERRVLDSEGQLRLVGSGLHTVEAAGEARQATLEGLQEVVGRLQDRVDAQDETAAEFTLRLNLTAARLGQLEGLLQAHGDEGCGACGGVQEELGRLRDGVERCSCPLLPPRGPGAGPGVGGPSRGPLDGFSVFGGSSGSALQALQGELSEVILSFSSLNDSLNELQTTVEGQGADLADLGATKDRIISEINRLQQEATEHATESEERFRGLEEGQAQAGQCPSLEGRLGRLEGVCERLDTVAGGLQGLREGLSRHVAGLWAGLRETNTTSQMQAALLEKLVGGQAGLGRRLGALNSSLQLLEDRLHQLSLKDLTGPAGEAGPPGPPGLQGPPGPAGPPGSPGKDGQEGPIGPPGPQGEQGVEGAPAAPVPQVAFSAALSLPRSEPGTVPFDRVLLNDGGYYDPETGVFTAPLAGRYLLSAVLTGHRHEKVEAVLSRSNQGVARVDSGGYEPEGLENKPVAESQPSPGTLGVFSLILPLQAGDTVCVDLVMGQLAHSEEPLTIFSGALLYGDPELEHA

α4β1 integrin on HT29 cells transfected with the wild type α4 integrin chain (from UniProt P13612 34-1032; P05556 21-798) (receptor)
percentage of adhesion: 90%

α4β1 integrin on SW480 cells transfected with the cytoplasmic tail-deleted α4 chain mutant R974 (from UniProt P05556 21-798) (receptor)
percentage of adhesion: 60%

α4β1 integrin on HT29 cells transfected with the cytoplasmic tail-deleted α4 chain mutant R974 (from UniProt P05556 21-798) (receptor)
percentage of adhesion: 90%

α4β1 integrin on SW480 cells transfected with the wild type α4 integrin chain (from UniProt P13612 34-1032; P05556 21-798) (receptor)
percentage of adhesion: 60%
